# B1: Beclin-1 (Mus musculus), O88597 (parent)
# chain: MEGSKASSSTMQVSFVCQRCSQPLKLDTSFKILDRVTIQELTAPLLTTAQAKPGETQEEEANSGEEPFIETRQDGVSRRFIPPARMMSTESANSFTLIGEASDGGTMENLSRRLKVTGDLFDIMSGQTDVDHPLCEECTDTLLDQLDTQLNVTENECQNYKRCLEILEQMNEDDSEQLQRELKELALEEERLIQELEDVEKNRKVVAENLEKVQAEAERLDQEEAQYQREYSEFKRQQLELDDELKSVENQVRYAQIQLDKLKKTNVFNATFHIWHSGQFGTINNFRLGRLPSVPVEWNEINAAWGQTVLLLHALANKMGLKFQRYRLVPYGNHSYLESLTDKSKELPLYCSGGLRFFWDNKFDHAMVAFLDCVQQFKEEVEKGETRFCLPYRMDVEKGKIEDTGGSGGSYSIKTQFNSEEQWTKALKFMLTNLKWGLAWVSSQFYNK
# Variants of: B1
# Conditions: with bcl2_mouse Bcl2, P10417
# bcl2_mouse Bcl2, P10417, sequence (P10417 whole entry): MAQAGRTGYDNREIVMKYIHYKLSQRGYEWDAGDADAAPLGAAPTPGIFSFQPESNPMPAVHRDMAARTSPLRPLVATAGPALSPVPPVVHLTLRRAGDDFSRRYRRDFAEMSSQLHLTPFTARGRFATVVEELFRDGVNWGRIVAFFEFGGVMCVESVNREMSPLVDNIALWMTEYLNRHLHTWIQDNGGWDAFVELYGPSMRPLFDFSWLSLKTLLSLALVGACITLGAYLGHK
row,Variant,effect of a mutation on the interaction
1,MEGSKASSSTMQVSFVCQRCSQPLKLDTSFKILDRVTIQELTAPLLTTAQAKPGETQEEEANSGEEPFIETRQDGVSRRFIPPARMMSTESANSFTLIGEASDGGTMENLSRRLKVTGDLADIMSGQTDVDHPLCEECTDTLLDQLDTQLNVTENECQNYKRCLEILEQMNEDDSEQLQRELKELALEEERLIQELEDVEKNRKVVAENLEKVQAEAERLDQEEAQYQREYSEFKRQQLELDDELKSVENQVRYAQIQLDKLKKTNVFNATFHIWHSGQFGTINNFRLGRLPSVPVEWNEINAAWGQTVLLLHALANKMGLKFQRYRLVPYGNHSYLESLTDKSKELPLYCSGGLRFFWDNKFDHAMVAFLDCVQQFKEEVEKGETRFCLPYRMDVEKGKIEDTGGSGGSYSIKTQFNSEEQWTKALKFMLTNLKWGLAWVSSQFYNK [F121A],decreasing interaction strength

# Source: IntAct's records for PubMed 29849149
